Assay results published in patent publication US20210403514A1 (NATIONAL INSTITUTE FOR BIOTECHNOLOGY IN THE NEGEV, published 2021).
Substitutions are numbered along the chain they refer to. Names and notes keep the numbering of the source. Each block holds one binder with its values, some of them ahead of it.

Key:
[1] = molecular target: T1, integrin α5β1 (human, UniProt P08648 42-995; P05556 21-728, limits assumed); test: SPR (ProteOn XPR36); α5β1 integrin immobilized, variant flowed at 1 µM
T1 construct: Immobilised on the SPR chip
T1 sequence (P08648 42-995 limits assumed, chain 1 of 2): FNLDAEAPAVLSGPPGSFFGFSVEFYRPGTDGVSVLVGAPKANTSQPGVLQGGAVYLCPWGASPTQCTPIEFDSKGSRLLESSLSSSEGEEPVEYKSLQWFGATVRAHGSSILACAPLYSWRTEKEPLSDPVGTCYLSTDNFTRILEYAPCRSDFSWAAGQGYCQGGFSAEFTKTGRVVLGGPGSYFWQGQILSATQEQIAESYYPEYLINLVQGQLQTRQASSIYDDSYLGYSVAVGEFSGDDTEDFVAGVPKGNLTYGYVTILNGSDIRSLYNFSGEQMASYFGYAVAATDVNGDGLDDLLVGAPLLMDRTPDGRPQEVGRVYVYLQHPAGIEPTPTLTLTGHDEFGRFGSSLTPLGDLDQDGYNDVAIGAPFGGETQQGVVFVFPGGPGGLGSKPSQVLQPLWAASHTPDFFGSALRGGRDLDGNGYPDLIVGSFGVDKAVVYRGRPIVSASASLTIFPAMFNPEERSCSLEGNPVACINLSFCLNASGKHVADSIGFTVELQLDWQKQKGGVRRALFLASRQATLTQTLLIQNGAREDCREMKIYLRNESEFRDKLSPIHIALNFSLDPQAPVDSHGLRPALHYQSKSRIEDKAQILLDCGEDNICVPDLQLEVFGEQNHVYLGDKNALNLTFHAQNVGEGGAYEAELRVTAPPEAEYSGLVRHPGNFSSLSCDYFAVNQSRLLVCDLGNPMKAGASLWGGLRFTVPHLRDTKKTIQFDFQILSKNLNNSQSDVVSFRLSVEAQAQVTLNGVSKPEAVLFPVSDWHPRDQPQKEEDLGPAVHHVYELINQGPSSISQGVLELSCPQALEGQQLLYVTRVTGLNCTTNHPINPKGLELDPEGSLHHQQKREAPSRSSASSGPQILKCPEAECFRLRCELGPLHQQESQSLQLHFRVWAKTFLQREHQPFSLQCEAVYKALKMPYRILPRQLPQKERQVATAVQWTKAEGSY
T1 sequence (P05556 21-728 limits assumed, chain 2 of 2): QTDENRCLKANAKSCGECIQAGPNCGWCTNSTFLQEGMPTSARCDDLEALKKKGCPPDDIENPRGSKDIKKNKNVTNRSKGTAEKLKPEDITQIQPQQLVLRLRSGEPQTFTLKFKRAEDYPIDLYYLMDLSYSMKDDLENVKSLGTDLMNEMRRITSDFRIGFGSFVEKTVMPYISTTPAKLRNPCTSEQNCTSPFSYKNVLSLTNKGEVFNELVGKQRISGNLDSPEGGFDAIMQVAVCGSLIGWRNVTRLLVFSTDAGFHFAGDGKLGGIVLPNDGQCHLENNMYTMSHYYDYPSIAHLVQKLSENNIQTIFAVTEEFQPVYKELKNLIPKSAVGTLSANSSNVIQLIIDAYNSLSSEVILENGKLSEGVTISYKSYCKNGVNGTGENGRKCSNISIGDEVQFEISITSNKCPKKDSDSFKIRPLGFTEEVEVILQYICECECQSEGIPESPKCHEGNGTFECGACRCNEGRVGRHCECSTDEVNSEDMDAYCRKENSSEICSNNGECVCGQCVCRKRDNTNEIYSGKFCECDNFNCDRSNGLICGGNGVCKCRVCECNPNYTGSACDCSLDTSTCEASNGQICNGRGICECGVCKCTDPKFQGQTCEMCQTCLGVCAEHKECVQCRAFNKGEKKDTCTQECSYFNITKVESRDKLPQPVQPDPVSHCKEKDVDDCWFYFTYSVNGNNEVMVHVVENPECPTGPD

[2] = molecular target: T2, soluble human c-FMS receptor (extracellular domains, residues Met1-Glu512) (Sino Biological) (human, UniProt P07333 20-512); test: SPR (ProteOn XPR36), variant immobilised, c-FMS 0-200 nM as analyte, equilibrium
T2 construct: range 1-512; Analyte in both SPR experiments; The printed range starts at Met1, so it includes the signal peptide; also called human c-FMS soluble proteins
T2 sequence (P07333 20-512 limits assumed): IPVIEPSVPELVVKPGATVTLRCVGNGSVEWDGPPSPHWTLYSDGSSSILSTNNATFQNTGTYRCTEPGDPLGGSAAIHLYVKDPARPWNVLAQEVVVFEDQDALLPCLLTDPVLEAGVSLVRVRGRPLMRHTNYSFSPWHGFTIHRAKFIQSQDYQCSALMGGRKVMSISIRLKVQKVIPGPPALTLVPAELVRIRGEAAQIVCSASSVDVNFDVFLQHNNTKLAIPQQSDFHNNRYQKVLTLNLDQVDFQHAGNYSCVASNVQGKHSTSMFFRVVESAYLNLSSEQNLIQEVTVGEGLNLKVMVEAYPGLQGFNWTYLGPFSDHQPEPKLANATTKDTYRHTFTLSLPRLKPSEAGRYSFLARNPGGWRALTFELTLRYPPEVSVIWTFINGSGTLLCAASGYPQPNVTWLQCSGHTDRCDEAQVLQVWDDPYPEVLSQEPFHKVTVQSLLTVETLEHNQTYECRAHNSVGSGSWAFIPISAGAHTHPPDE

[3] = molecular target: T3, integrin α3β1 (human, UniProt P26006 33-991; P05556 21-728, limits assumed); test: SPR (ProteOn XPR36); α3β1 integrin immobilized, variant flowed at 1 µM
T3 construct: Immobilised on the SPR chip
T3 sequence (P26006 33-991 limits assumed, chain 1 of 2): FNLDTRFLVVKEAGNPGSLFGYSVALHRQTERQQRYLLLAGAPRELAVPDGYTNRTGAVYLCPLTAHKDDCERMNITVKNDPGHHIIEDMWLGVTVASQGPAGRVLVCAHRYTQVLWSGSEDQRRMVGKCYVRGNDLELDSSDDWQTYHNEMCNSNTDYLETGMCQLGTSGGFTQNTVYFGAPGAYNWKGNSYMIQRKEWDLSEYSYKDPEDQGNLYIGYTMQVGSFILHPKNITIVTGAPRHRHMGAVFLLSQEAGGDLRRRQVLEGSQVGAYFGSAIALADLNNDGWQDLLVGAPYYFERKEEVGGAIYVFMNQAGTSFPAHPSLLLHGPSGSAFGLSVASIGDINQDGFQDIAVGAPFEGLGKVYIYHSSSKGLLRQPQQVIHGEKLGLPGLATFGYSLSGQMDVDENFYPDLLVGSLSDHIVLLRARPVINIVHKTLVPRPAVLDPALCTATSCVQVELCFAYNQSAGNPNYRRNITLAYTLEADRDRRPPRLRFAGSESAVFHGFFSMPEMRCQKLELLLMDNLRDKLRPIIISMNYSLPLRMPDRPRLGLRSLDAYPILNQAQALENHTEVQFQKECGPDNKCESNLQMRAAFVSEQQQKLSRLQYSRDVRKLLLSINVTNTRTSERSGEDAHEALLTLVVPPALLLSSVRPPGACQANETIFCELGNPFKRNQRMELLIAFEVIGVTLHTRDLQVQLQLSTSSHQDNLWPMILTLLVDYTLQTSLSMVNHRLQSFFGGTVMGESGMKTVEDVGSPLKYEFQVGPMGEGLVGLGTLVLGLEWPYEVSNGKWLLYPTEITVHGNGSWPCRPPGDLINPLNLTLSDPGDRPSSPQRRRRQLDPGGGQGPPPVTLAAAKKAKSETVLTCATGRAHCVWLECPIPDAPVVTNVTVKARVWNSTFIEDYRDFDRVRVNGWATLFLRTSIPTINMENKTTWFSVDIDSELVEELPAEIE
T3 sequence (P05556 21-728 limits assumed, chain 2 of 2): as the sequence (P05556 21-728 limits assumed, chain 2 of 2) above

[4] = molecular target: the molecule itself; test: BS3 chemical crosslinking, denaturing SDS-PAGE, Coomassie stain; self-association (homodimer)
[5] = molecular target: T4, soluble human αvβ3 integrin (human, UniProt P06756 31-992; P05106 27-718); test: SPR (ProteOn XPR36), variant immobilised, αvβ3 integrin 0-200 nM as analyte, equilibrium
T4 construct: R&D Systems for yeast display; also called integrin αvβ3; recombinant αvβ3 integrin

[6] = molecular target: T5, integrin α4β7 (human, UniProt P13612 34-977; P26010 20-723, limits assumed); test: SPR (ProteOn XPR36); α4β7 integrin immobilized, variant flowed at 1 µM
T5 construct: Immobilised on the SPR chip
T5 sequence (P13612 34-977 limits assumed, chain 1 of 2): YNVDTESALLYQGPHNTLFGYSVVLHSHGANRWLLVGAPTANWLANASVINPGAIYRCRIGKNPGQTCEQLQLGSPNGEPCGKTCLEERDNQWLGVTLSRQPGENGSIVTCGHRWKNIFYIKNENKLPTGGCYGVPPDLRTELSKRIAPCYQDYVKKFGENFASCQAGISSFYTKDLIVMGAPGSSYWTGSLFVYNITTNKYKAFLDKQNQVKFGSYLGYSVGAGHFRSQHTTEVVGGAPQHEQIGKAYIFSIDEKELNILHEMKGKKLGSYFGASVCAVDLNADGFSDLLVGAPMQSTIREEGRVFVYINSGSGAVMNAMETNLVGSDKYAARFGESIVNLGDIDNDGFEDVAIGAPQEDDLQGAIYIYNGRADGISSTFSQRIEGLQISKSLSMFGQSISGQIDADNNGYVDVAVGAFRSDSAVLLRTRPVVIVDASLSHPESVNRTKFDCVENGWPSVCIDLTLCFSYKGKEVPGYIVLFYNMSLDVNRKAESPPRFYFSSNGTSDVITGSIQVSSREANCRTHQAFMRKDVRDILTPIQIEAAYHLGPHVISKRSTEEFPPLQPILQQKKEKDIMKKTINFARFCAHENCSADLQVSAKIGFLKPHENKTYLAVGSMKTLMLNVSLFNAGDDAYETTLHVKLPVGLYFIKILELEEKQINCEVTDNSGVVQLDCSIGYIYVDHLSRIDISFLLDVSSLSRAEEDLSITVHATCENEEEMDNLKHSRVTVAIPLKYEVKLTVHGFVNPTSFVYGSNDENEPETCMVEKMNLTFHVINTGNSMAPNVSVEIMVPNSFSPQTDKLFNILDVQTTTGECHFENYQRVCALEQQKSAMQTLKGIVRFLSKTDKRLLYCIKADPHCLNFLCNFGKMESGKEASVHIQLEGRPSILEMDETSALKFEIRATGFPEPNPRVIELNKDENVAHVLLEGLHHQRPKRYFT
T5 sequence (P26010 20-723 limits assumed, chain 2 of 2): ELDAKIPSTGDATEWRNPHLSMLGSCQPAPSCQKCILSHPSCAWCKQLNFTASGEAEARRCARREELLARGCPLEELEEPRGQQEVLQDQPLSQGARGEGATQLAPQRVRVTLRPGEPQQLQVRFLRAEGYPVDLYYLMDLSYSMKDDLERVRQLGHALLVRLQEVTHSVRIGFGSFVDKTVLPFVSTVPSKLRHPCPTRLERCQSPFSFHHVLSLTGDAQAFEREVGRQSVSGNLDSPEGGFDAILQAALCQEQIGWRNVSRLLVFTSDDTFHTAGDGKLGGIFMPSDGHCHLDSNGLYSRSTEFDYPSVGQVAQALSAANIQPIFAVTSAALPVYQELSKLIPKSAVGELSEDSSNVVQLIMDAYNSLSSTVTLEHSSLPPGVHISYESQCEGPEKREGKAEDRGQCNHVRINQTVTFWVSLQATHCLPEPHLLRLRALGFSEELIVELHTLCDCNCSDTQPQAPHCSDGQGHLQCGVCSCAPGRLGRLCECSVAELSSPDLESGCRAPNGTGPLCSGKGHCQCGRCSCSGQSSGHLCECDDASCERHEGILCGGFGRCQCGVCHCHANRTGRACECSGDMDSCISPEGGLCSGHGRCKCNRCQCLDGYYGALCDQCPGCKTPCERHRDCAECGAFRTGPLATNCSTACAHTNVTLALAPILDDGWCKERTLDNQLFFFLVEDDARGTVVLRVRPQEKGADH

[7] = molecular target: the molecule itself; test: BS3 chemical crosslinking, denaturing SDS-PAGE, Coomassie stain; self-association (homodimer); remark: listed apart in the source
[8] = molecular target: T4, soluble human αvβ3 integrin; test: SPR (ProteOn XPR36), M-CSFαvβ3 immobilised, αvβ3 integrin 0-200 nM as analyte, equilibrium
[9] = molecular target: T2, soluble human c-FMS receptor …; test: SPR (ProteOn XPR36), M-CSF protein immobilised, c-FMS (Met1-Glu512) 4.375-70 nM as analyte, equilibrium, N=3
[10] = molecular target: the molecule itself; test: SAXS, radius of gyration against protein concentration; oligomeric state (homodimer) in solution
[11] = molecular target: T6, soluble Fc conjugated human c-FMS (R&D systems) (human, UniProt P07333 20-512); test: yeast surface display, flow cytometry; soluble c-FMS-Fc titrated from 0.5 to 2000 nM
T6 construct: Bought reagent; Used in all yeast display experiments; also called c-FMS-Fc; c-FMS-Fc recombinant protein; not shown: Fc (detected with goat anti human Fc)
T6 sequence (P07333 20-512 limits assumed): as the sequence (P07333 20-512 limits assumed) above

[12] = molecular target: T6, soluble Fc conjugated human c-FMS (R&D …); test: yeast surface display flow cytometry; displayed M-CSFM titrated with c-FMS-Fc (0.5 nM to 2000 nM); apparent KD
[13] = molecular target: T2, soluble human c-FMS receptor …; test: SPR (ProteOn XPR36), M-CSF protein immobilised, c-FMS (Met1-Glu512) as analyte, equilibrium, N=3
[14] = molecular target: the molecule itself; test: BS3 chemical crosslinking, SDS-PAGE, InstantBlue stain; self-association (homodimer)
[15] = molecular target: T4, soluble human αvβ3 integrin; test: SPR (ProteOn XPR36); variant immobilized by amine coupling, soluble αvβ3 integrin flowed at 12.5 to 200 nM; panel assigned to M-CSFM although the legend prints '9A and 9E'
[16] = molecular target: T7, murine c-FMS on bone marrow derived monocytes (BMMs) (mouse, UniProt P09581 20-977); test: cell-based or functional assay
T7 sequence (looked up): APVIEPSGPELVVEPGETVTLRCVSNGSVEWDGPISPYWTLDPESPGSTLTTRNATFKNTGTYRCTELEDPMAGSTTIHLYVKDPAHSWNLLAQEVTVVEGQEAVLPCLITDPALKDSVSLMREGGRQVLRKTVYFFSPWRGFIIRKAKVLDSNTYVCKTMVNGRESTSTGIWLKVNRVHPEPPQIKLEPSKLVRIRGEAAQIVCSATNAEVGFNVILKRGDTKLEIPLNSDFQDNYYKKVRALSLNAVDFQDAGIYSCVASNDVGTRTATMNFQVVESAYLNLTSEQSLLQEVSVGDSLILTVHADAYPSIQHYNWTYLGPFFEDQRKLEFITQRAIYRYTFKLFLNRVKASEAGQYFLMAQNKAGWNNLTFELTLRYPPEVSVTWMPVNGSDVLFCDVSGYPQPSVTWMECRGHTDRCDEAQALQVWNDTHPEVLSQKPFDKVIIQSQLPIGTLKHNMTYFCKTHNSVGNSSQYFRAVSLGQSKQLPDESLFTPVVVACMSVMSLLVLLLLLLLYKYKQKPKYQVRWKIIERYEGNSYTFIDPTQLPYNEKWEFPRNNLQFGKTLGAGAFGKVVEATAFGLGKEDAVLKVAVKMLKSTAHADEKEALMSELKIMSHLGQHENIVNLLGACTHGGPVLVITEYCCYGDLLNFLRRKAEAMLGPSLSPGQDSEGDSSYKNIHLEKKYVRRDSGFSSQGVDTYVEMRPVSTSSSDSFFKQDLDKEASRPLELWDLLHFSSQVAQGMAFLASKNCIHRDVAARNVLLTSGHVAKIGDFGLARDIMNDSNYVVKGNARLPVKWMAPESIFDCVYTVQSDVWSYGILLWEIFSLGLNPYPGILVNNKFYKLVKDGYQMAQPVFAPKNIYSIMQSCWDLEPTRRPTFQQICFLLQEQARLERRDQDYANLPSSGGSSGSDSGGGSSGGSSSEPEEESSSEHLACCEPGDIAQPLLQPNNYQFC

[17] = molecular target: T2, soluble human c-FMS receptor …; test: SPR (ProteOn XPR36), M-CSF protein immobilised, c-FMS 0-200 nM as analyte, equilibrium

- binding result [1]: no binding (tested: 1 µM)
- Kd [2]: 152 nM
- binding result [3]: no binding (tested: 1 µM)
- Kd [5]: 199 nM
- binding result [6]: no binding (tested: 1 µM)
B1: M-CSFRGD variant 4.22, purified soluble, non-glycosylated (designed binder)
chain: EEVSEYCSHMIGSGHLQSLQRLIDQTSRGDSPSITFEFVDQEQLKDPVCYLKKAFLLVQDIMEDTMRFRDNTPNAIAIVQLQELSLRLKSCFTKDYEEHDKACVRTFYETPLQLLEKVKNVFNETKNLLDKDWNIFSKNCNNSFAECSSQGHERQSEGS
modifications: N-glycans removed with Endo HF (non-glycosylated). Labelled with DyLight 488 NHS ester on amines for the cell binding assays. Amine-coupled to the chip for SPR.
notes: Pichia pastoris product; 21.7 kDa by MS; not shown: N-terminal FLAG tag, C-terminal 6xHis tag and the vector junction residues (pPIC9K cloning site)
- binding result [4]: no binding

- binding result [1]: no binding (tested: 1 µM)
- Kd [2]: 96 nM
- binding result [3]: no binding (tested: 1 µM)
- Kd [5]: 245 nM
- binding result [6]: no binding (tested: 1 µM)
B2: M-CSFRGD variant 5.6, purified soluble, non-glycosylated (designed binder)
chain: B1 chain with Q25T, T26Y, S27P, S31M, P32C
modifications: N-glycans removed with Endo HF (non-glycosylated). Labelled with DyLight 488 NHS ester on amines for the cell binding assays. Amine-coupled to the chip for SPR.
notes: Pichia pastoris product; 22 kDa by MS; also called M-CSFRGD 5.6; M-CSF5.6; not shown: N-terminal FLAG tag, C-terminal 6xHis tag and the vector junction residues (pPIC9K cloning site)
- binding result [7]: no binding

- Kd [8]: 231 nM
B3: M-CSFαvβ3 (variant 4.22 with histidine to alanine in positions 9 and 15), purified soluble (designed binder, not shown: small tags and cut ends)
chain: B1 chain with H9A, H15A
modifications: Expressed in Pichia with an N-terminal FLAG tag and a C-terminal 6xHis tag, neither of which is in the letters. N-glycans were removed with Endo HF.

- binding result [1]: no binding (tested: 1 µM)
- Kd [2]: 219 nM
- binding result [3]: no binding (tested: 1 µM)
- Kd [5]: 108 nM
- binding result [6]: no binding (tested: 1 µM)
B4: M-CSFRGD variant 4.24, purified soluble, non-glycosylated (designed binder)
chain: EEVSEYCSHMIGSGHLQSLQRLIDSQMETSSQITFEFVDQEQLKDPVCYLKKAFLLVQDIMEDEPVRGDNINPNAIAIVQLQELSLRLKSCFTKDYEEHDKACVRTFYETPLQLLEKVKNVFNETKNLLDKDWNIFSKNCNNSFAECSSQGHERQSEGS
modifications: N-glycans removed with Endo HF (non-glycosylated)
notes: not shown: FLAG tag at the N-terminus of the cloning site (pPIC9K); 6xHis tag at the C-terminus of the cloning site
- binding result [7]: no binding

- Kd [9]: 25.1 nM
B5: human wild-type M-CSF (M-CSFWT) (ligand)
chain: EEVSEYCSHMIGSGHLQSLQRLIDSQMETSCQITFEFVDQEQLKDPVCYLKKAFLLVQDIMEDTMRFRDNTPNAIAIVQLQELSLRLKSCFTKDYEEHDKACVRTFYETPLQLLEKVKNVFNETKNLLDKDWNIFSKNCNNSFAECSSQGHERQSEGS
notes: also called human M-CSFWT
- binding result [10]: binds

- EC50 (read off the curve) [11]: ~20 nM
- Kd [12]: 20 nM
B6: M-CSFM displayed on the yeast surface (YSD M-CSFM) (ligand)
chain: B5 chain with C31S
notes: also called M-CSF monomer; not shown: yeast surface display fusion partner (pCTCON construct on the S. cerevisiae cell wall, with c-myc tag)

- Kd [13]: 61.5 nM
B7: M-CSFC31S,M27R (designed binder)
chain: B5 chain with M27R, C31S
notes: monomer; Purified from Pichia pastoris GS115; also called M-CSFM,M27R; M-CSF double mutant
- binding result [14]: no binding

- binding result [15]: no binding (tested: 200 nM)
- c-FMS phosphorylation at the peak concentration, fold against M-CSFWT [16]: 10 fold
- c-FMS phosphorylation at the peak concentration, fold against the positive control (0.5 nM murine M-CSF) [16]: 40 fold
- Kd [17]: 31.6 nM
B8: M-CSFM, purified soluble, non-glycosylated (M-CSFC31S) (ligand)
chain: B5 chain with C31S
modifications: N-glycans removed with Endo HF (non-glycosylated)
notes: Expressed in Pichia pastoris GS115; Forms non-covalent dimers; also called non-glycosylated M-CSFM; M-CSF monomer; not shown: FLAG tag at the N-terminus of the cloning site (pPIC9K); 6xHis tag at the C-terminus of the cloning site
- binding result [14]: binds

- Kd [17]: 42.6 nM
B9: glycosylated M-CSFM, purified soluble (ligand)
chain: B5 chain with C31S
modifications: N-glycosylated (two glycosylation sites in positions 122 and 140)
notes: Pichia pastoris product without Endo HF treatment; not shown: FLAG tag at the N-terminus of the cloning site (pPIC9K); 6xHis tag at the C-terminus of the cloning site
